± gives the standard deviation of the averaged measurements.
Assay: total protein half-life in vivo (active degradation + dilution); higher = more stable protein
[1] = E. coli NCM3722 delta-clpP delta-lon delta-hslV, growth: N-lim chemostat, doubling time 6 h
[2] = E. coli NCM3722 delta-clpP, growth: N-lim chemostat, doubling time 6 h
[3] = E. coli NCM3722 delta-hslV, growth: N-lim chemostat, doubling time 6 h
[4] = E. coli NCM3722 delta-smpB, growth: N-lim chemostat, doubling time 6 h
[5] = wild type E. coli NCM3722, growth: C-lim chemostat, doubling time 3 h
[6] = wild type E. coli NCM3722, growth: C-lim chemostat, doubling time 6 h
[7] = wild type E. coli NCM3722, growth: C-lim chemostat, doubling time 12 h
[8] = wild type E. coli NCM3722, growth: N-lim chemostat, doubling time 6 h
[9] = wild type E. coli NCM3722, growth: N-lim chemostat, doubling time 12 h
[10] = wild type E. coli NCM3722, growth: P-lim chemostat, doubling time 6 h
[11] = wild type E. coli NCM3722, growth: P-lim chemostat, doubling time 12 h
[12] = E. coli NCM3722 delta-lon, growth: N-lim chemostat, doubling time 6 h

Sequence | total protein half-life in vivo [1] [h] | total protein half-life in vivo [2] [h] | total protein half-life in vivo [3] [h] | total protein half-life in vivo [4] [h] | total protein half-life in vivo [5] [h] | total protein half-life in vivo [6] [h] | total protein half-life in vivo [7] [h] | total protein half-life in vivo [8] [h] | total protein half-life in vivo [9] [h] | total protein half-life in vivo [10] [h] | total protein half-life in vivo [11] [h] | total protein half-life in vivo [12] [h]
MNPERSERIEIPVLPLRDVVVYPHMVIPLFVGREKSIRCLEAAMDHDKKIMLVAQKEASTDEPGVNDLFTVGTVASILQMLKLPDGTVKVLVEGLQRARISALSDNGEHFSAKAEYLESPTIDEREQEVLVRTAISQFEGYIKLNKKIPPEVLTSLNSIDDPARLADTIAAHMPLKLADKQSVLEMSDVNERLEYLMAMMESEIDLLQVEKRIRNRVKKQMEKSQREYYLNEQMKAIQKELGEMDDAPDENEALKRKIDAAKMPKEAKEKAEAELQKLKMMSPMSAEATVVRGYIDWMVQVPWNARSKVKKDLRQAQEILDTDHYGLERVKDRILEYLAVQSRVNKIKGPILCLVGPPGVGKTSLGQSIAKATGRKYVRMALGGVRDEAEIRGHRRTYIGSMPGKLIQKMAKVGVKNPLFLLDEIDKMSSDMRGDPASALLEVLDPEQNVAFSDHYLEVDYDLSDVMFVATSNSMNIPAPLLDRMEVIRLSGYTEDEKLNIAKRHLLPKQIERNALKKGELTVDDSAIIGIIRYYTREAGVRGLEREISKLCRKAVKQLLLDKSLKHIEINGDNLHDYLGVQRFDYGRADNENRVGQVTGLAWTEVGGDLLTIETACVPGKGKLTYTGSLGEVMQESIQAALTVVRARAEKLGINPDFYEKRDIHVHVPEGATPKDGPSAGIAMCTALVSCLTGNPVRADVAMTGEITLRGQVLPIGGLKEKLLAAHRGGIKTVLIPFENKRDLEEIPDNVIADLDIHPVKRIEEVLTLALQNEPSGMQVVTAK [P0A9M0] | 3.09 | 6.54 ± 0.34 | 4.728 ± 0.026 | 4.49 ± 0.13 | 2.889 ± 0.0043 | 5.944 ± 0.036 | 11.2 ± 0.36 | 4.74 ± 0.17 | 6.68 ± 0.68 | 5.58 ± 0.2 | 10.7 ± 0.49 | 
MLRHNVPVRRDLDQIAADNGFDFHIIDNEIYWDESRAYRFTLRQIEEQIEKPTAELHQMCLEVVDRAVKDEEILTQLAIPPLYWDVIAESWRARDPSLYGRMDFAWCGNAPVKLLEYNADTPTSLYESAYFQWLWLEDARRSGIIPRDADQYNAIQERLISRFSELYSREPFYFCCCQDTDEDRSTVLYLQDCAQQAGQESRFIYIEDLGLGVGGVLTDLDDNVIQRAFKLYPLEWMMRDDNGPLLRKRREQWVEPLWKSILSNKGLMPLLWRFFPGHPNLLASWFDGEKPQIAAGESYVRKPIYSREGGNVTIFDGKNNVVDHADGDYADEPMIYQAFQPLPRFGDSYTLIGSWIVDDEACGMGIREDNTLITKDTSRFVPHYIAG | > 8 | > 8 | > 8 |  |  |  | 8.91 | > 8 | > 16 | > 8 | > 16 | > 8
MNVFSQTQRYKALFWLSLFHLLVITSSNYLVQLPVSILGFHTTWGAFSFPFIFLATDLTVRIFGAPLARRIIFAVMIPALLISYVISSLFYMGSWQGFGALAHFNLFVARIATASFMAYALGQILDVHVFNRLRQSRRWWLAPTASTLFGNVSDTLAFFFIAFWRSPDAFMAEHWMEIALVDYCFKVLISIVFFLPMYGVLLNMLLKRLADKSEINALQAS |  |  |  |  | 2.3 |  |  |  |  |  |  | 
MFRLNPFVRVGLCLSAISCAWPVLAVDDDGETMVVTASSVEQNLKDAPASISVITQEDLQRKPVQNLKDVLKEVPGVQLTNEGDNRKGVSIRGLDSSYTLILVDGKRVNSRNAVFRHNDFDLNWIPVDSIERIEVVRGPMSSLYGSDALGGVVNIITKKIGQKWSGTVTVDTTIQEHRDRGDTYNGQFFTSGPLIDGVLGMKAYGSLAKREKDDPQNSTTTDTGETPRIEGFSSRDGNVEFAWTPNQNHDFTAGYGFDRQDRDSDSLDKNRLERQNYSVSHNGRWDYGTSELKYYGEKVENKNPGNSSPITSESNTVDGKYTLPLTAINQFLTVGGEWRHDKLSDAVNLTGGTSSKTSASQYALFVEDEWRIFEPLALTTGVRMDDHETYGEHWSPRAYLVYNATDTVTVKGGWATAFKAPSLLQLSPDWTSNSCRGACKIVGSPDLKPETSESWELGLYYMGEEGWLEGVESSVTVFRNDVKDRISISRTSDVNAAPGYQNFVGFETGANGRRIPVFSYYNVNKARIQGVETELKIPFNDEWKLSINYTYNDGRDVSNGENKPLSDLPFHTANGTLDWKPLALEDWSFYVSGHYTGQKRADSATAKTPGGYTIWNTGAAWQVTKDVKLRAGVLNLGDKDLSRDDYSYNEDGRRYFMAVDYRF |  |  |  |  | 3.86 ± 0.058 |  |  |  | > 16 |  | > 16 | 
MKLTTHHLRTGAALLLAGILLAGCDQSSSDAKHIKVGVINGAEQDVAEVAKKVAKEKYGLDVELVGFSGSLLPNDATNHGELDANVFQHRPFLEQDNQAHGYKLVAVGNTFVFPMAGYSKKIKTVAQIKEGATVAIPNDPTNLGRALLLLQKEKLITLKEGKGLLPTALDITDNPRHLQIMELEGAQLPRVLDDPKVDVAIISTTYIQQTGLSPVHDSVFIEDKNSPYVNILVAREDNKNAENVKEFLQSYQSPEVAKAAETIFNGGAVPGW | 5.58 ± 0.19 | 6.82 ± 1.4 |  | 6.67 ± 0.91 | 2.86 ± 0.047 | 5.49 ± 0.059 | 10.7 ± 1.3 | 5.44 ± 0.46 | 12.6 ± 2.8 | 5.38 ± 0.23 | 10.6 ± 0.015 | 6.47 ± 0.86
MSKSTAEIRQAFLDFFHSKGHQVVASSSLVPHNDPTLLFTNAGMNQFKDVFLGLDKRNYSRATTSQRCVRAGGKHNDLENVGYTARHHTFFEMLGNFSFGDYFKHDAIQFAWELLTSEKWFALPKERLWVTVYESDDEAYEIWEKEVGIPRERIIRIGDNKGAPYASDNFWQMGDTGPCGPCTEIFYDHGDHIWGGPPGSPEEDGDRYIEIWNIVFMQFNRQADGTMEPLPKPSVDTGMGLERIAAVLQHVNSNYDIDLFRTLIQAVAKVTGATDLSNKSLRVIADHIRSCAFLIADGVMPSNENRGYVLRRIIRRAVRHGNMLGAKETFFYKLVGPLIDVMGSAGEDLKRQQAQVEQVLKTEEEQFARTLERGLALLDEELAKLSGDTLDGETAFRLYDTYGFPVDLTADVCRERNIKVDEAGFEAAMEEQRRRAREASGFGADYNAMIRVDSASEFKGYDHLELNGKVTALFVDGKAVDAINAGQEAVVVLDQTPFYAESGGQVGDKGELKGANFSFAVEDTQKYGQAIGHIGKLAAGSLKVGDAVQADVDEARRARIRLNHSATHLMHAALRQVLGTHVSQKGSLVNDKVLRFDFSHNEAMKPEEIRAVEDLVNTQIRRNLPIETNIMDLEAAKAKGAMALFGEKYDERVRVLSMGDFSTELCGGTHASRTGDIGLFRIISESGTAAGVRRIEAVTGEGAIATVHADSDRLSEVAHLLKGDSNNLADKVRSVLERTRQLEKELQQLKEQAAAQESANLSSKAIDVNGVKLLVSELSGVEPKMLRTMVDDLKNQLGSTIIVLATVVEGKVSLIAGVSKDVTDRVKAGELIGMVAQQVGGKGGGRPDMAQAGGTDAAALPAALASVKGWVSAKLQ | 5.338 ± 0.0061 | 5.33 ± 0.19 | 5.65 ± 0.48 | 5.06 ± 0.068 | 3.04 ± 0.14 | 6.01 ± 0.44 | 11 ± 0.2 | 5.11 ± 0.11 | 9.15 ± 0.27 | 6.2 ± 0.075 | 11.9 ± 0.62 | 5.67 ± 0.09
MTALALFDLLKPNYALATQVEFTDPEIVAEYITYPSPNGHGEVRGYLVKPAKMSGKTPAVVVVHENRGLNPYIEDVARRVAKAGYIALAPDGLSSVGGYPGNDDKGRELQQQVDPTN [Q7DFU6] | 2.25 |  |  |  |  |  |  |  |  |  |  | 
